Laboratory results as given in patent US20160319321.

How the values were obtained:
[1] = target: T1, Lys(Dnp)-DDGDR-HSQGT-Lys(Abz)amide
T1 chain: KDDGDRHSQGTK

[2] = target: T2, Lys(Dnp)-TEGDR-HAEGT-Lys(Abz)amide
T2 chain: KTEGDRHAEGTK

[3] = target: T3, DVKPEQPLYDDDDK-[Arg34]GLP-1(9-37)
T3 chain: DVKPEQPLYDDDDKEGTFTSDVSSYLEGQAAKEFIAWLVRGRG

[4] = target: T4, Lys(Dnp)-DDGDR-EGTFT-Lys(Abz)amide
T4 chain: KDDGDREGTFTK

[5] = target: T5, Lys(Dnp)-DQGDR-HGEGT-Lys(Abz)amide
T5 chain: KDQGDRHGEGTK

[6] = target: T6, Lys(Dnp)-SDEGDR-HAEGT-Lys(Abz)amide
T6 chain: KSDEGDRHAEGTK

[7] = target: T7, Lys(Dnp)-FEGDR-HAEGT-Lys(Abz)amide
T7 chain: KFEGDRHAEGTK

[8] = target: T8, Lys(Dnp)-QEGDR-HGEGT-Lys(Abz)amide
T8 chain: KQEGDRHGEGTK

[9] = target: T9, Lys(Dnp)-DLGDR-EGTFT-Lys(Abz)amide
T9 chain: KDLGDREGTFTK

[10] = target: T10, Lys(Dnp)-RDEGDR-HAEGT-Lys(Abz)amide
T10 chain: KRDEGDRHAEGTK

[11] = target: T11, Lys(Dnp)-IDEGDR-HAEGT-Lys(Abz)amide
T11 chain: KIDEGDRHAEGTK

[12] = target: T12, DVKEGQPLYDEGDR-[Arg34]GLP-1(9-37)
T12 chain: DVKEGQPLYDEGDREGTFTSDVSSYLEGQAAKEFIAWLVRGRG

[13] = target: T13, Lys(Dnp)-DWGDR-HAEGT-Lys(Abz)amide
T13 chain: KDWGDRHAEGTK

[14] = target: T14, Lys(Dnp)-EDGDR-HAEGT-Lys(Abz)amide
T14 chain: KEDGDRHAEGTK

[15] = target: T15, Lys(Dnp)-GDEGDR-HAEGT-Lys(Abz)amide
T15 chain: KGDEGDRHAEGTK

[16] = target: T16, DVKPGQELYDDDDK-[Arg34]GLP-1(9-37)
T16 chain: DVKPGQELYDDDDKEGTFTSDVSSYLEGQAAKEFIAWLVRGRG

[17] = target: T17, Lys(Dnp)-EGGDR-EGTFT-Lys(Abz)amide
T17 chain: KEGGDREGTFTK

[18] = target: T18, Lys(Dnp)-DFGDR-HAEGT-Lys(Abz)amide
T18 chain: KDFGDRHAEGTK

[19] = target: T19, Lys(Dnp)-EFGDR-HAEGT-Lys(Abz)amide
T19 chain: KEFGDRHAEGTK

[20] = target: T20, Lys(Dnp)-NYTDRHAEGT-Lys(Abz)amide
T20 chain: KNYTDRHAEGTK

[21] = target: T21, Lys(Dnp)-EEGDR-HGEGT-Lys(Abz)amide
T21 chain: KEEGDRHGEGTK

[22] = target: T22, Lys(Dnp)-DSGDR-HGTFT-Lys(Abz)amide
T22 chain: KDSGDRHGTFTK

[23] = target: T23, Lys(Dnp)-EHGDR-HAEGT-Lys(Abz)amide
T23 chain: KEHGDRHAEGTK

[24] = target: T24, Lys(Dnp)-NEGDR-HAEGT-Lys(Abz)amide
T24 chain: KNEGDRHAEGTK

[25] = target: T25, Lys(Dnp)-DFGDR-EGTFT-Lys(Abz)amide
T25 chain: KDFGDREGTFTK

[26] = target: T26, DVKPGQPLEDDDDK-[Arg34]GLP-1(9-37)
T26 chain: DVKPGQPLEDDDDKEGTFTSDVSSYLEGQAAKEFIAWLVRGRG

[27] = target: T27, Lys(Dnp)-DEGDR-HGTFT-Lys(Abz)amide
T27 chain: KDEGDRHGTFTK

[28] = target: T28, Lys(Dnp)-ELGDR-EGTFT-Lys(Abz)amide
T28 chain: KELGDREGTFTK

[29] = target: T29, Lys(Dnp)-ESGDR-HGEGT-Lys(Abz)amide
T29 chain: KESGDRHGEGTK

[30] = target: T30, Lys(Dnp)-SSGDRHAEGT-Lys(Abz)amide
T30 chain: KSSGDRHAEGTK

[31] = target: T31, Lys(Dnp)-DGGDR-EGTFT-Lys(Abz)amide
T31 chain: KDGGDREGTFTK

[32] = target: T32, Lys(Dnp)-EAGDR-EGTFT-Lys(Abz)amide
T32 chain: KEAGDREGTFTK

[33] = target: T33, Lys(Dnp)-INDDRHAEGT-Lys(Abz)amide
T33 chain: XINDDRHAEGTX

[34] = target: T34, Lys(Dnp)-DLGDR-HSQGT-Lys(Abz)amide
T34 chain: KDLGDRHSQGTK

[35] = target: T35, Lys(Dnp)-DSGDR-HGEGT-Lys(Abz)amide
T35 chain: KDSGDRHGEGTK

[36] = target: T36, Lys(Dnp)-WDEGDR-HAEGT-Lys(Abz)amide
T36 chain: KWDEGDRHAEGTK

[37] = target: T37, Lys(Dnp)-QEGDR-HAEGT-Lys(Abz)amide
T37 chain: KQEGDRHAEGTK

[38] = target: T38, Lys(Dnp)-EEGDR-HAEGT-Lys(Abz)amide
T38 chain: KEEGDRHAEGTK

[39] = target: T39, Lys(Dnp)-DYGDR-HGEGT-Lys(Abz)amide
T39 chain: KDYGDRHGEGTK

[40] = target: T40, Lys(Dnp)-DLGDR-HGTFT-Lys(Abz)amide
T40 chain: KDLGDRHGTFTK

[41] = target: T41, Lys(Dnp)-ETGDR-HAEGT-Lys(Abz)amide
T41 chain: KETGDRHAEGTK

[42] = target: T42, Lys(Dnp)-DDEGDR-HAEGT-Lys(Abz)amide
T42 chain: KDDEGDRHAEGTK

B1: bovine Enterokinase light chain variant (C112A, L134K, I135K) (protein)
chain: IVGGSDSREGAWPWVVALYFDDQQVCGASLVSRDWLVSAAHCVYGRNMEPSKWKAVLGLHMASNLTSPQIETRLIDQIVINPHYNKRRKNNDIAMMHLEMKVNYTDYIQPIALPEENQVFPPGRICSIAGWGAKKYQGSTADVLQEADVPLLSNEKCQQQMPEYNITENMVCAGYEAGGVDSCQGDSGGPLMCQENNRWLLAGVTSFGYQCALPNRPGVYARVPRFTEWIQSFLH
- Activity (%) [1]: 310%
- Activity (%) [2]: 393%
- Activity (%) [3]: 167%
- Activity (%) [4]: 428%
- Activity (%) [5]: 467%
- Activity (%) [6]: 222%
- Activity (%) [7]: 397%
- Activity (%) [8]: 275%
- Activity (%) [9]: 438%
- Activity (%) [10]: 222%
- Activity (%) [11]: 283%
- Activity (%) [12]: 913%
- Activity (%) [13]: 513%
- Activity (%) [14]: 632%
- Activity (%) [15]: 267%
- Activity (%) [16]: 168%
- Activity (%) [17]: 380%
- Activity (%) [18]: 550%
- Activity (%) [19]: 486%
- Activity (%) [20]: 59%
- Activity (%) [21]: 641%
- Activity (%) [22]: 172%
- Activity (%) [23]: 549%
- Activity (%) [24]: 457%
- Activity (%) [25]: 419%
- Activity (%) [26]: 100%
- Activity (%) [27]: 392%
- Activity (%) [28]: 396%
- Activity (%) [29]: 221%
- Activity (%) [30]: 191%
- Activity (%) [31]: 322%
- Activity (%) [32]: 355%
- Activity (%) [33]: 126%
- Activity (%) [34]: 268%
- Activity (%) [35]: 282%
- Activity (%) [36]: 181%
- Activity (%) [37]: 551%
- Activity (%) [38]: 988%
- Activity (%) [39]: 469%
- Activity (%) [40]: 216%
- Activity (%) [41]: 475%
- Activity (%) [42]: 113%
